The target in assay [1] is T1, human β-catenin (Leu218-Leu781) mutant His 470 to alanine, Gal-4 activation domain fusion (human, UniProt P35222 218-781).
T1 sequence: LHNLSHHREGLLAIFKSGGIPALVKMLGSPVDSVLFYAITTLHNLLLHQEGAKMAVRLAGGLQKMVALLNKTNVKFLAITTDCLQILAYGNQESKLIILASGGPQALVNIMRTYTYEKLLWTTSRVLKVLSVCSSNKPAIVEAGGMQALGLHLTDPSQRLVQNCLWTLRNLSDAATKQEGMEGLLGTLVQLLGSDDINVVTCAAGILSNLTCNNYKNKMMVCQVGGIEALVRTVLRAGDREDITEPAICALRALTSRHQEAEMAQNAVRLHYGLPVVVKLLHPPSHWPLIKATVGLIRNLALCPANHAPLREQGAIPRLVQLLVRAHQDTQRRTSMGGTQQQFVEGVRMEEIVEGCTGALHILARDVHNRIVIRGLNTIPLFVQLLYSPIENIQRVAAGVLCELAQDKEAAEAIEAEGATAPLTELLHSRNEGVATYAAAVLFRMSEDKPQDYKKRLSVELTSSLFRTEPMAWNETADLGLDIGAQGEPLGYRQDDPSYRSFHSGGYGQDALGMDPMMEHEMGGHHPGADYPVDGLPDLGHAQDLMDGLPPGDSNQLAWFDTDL
Put plainly: yeast 2-hybrid. On the procedure:
(§1) 4. Preparation and testing of mutants of β-catenin modulating the interaction with LEF-1, APC, conductin or E-cadherin The mutagenesis of β-catenin in the armadillo repeats 3–8 was carried out by means of the "mutagenesis kit" of the company Clontech according to the producer's record and the mutants were checked by sequencing (FIG. 5). In all mutants the original amino acid was substituted by alanine. For analyzing the interactions the cDNA of human β-catenin (armadillo repeat 3 up to the C-terminal end of the protein) coding for the amino acids Leu218–Leu7 µl or its mutants was cloned into the fusion vector for the activation domain of Gal-4 (pGAD424, Clontech). The cDNA for the binding domains of the interaction partners was cloned into the Lex-A fusion vector BTM 116. To this end, the cDNA of LEF-1 for the amino acids 1–99, conductin for the amino acids Ala342–ARG465; of human APC for the amino acids His1012–Glu1215 (APC 15 amino acid repeats) and for the amino acids Ser1259Asp 1400 (APC 20 amino acid repeats) and E-cadherin for the amino acids Gin773–Asp884 (cytoplasmatic domain) were amplified with the respective primers PCR. The interaction of the Lex-A hybrids with β-catenin and its mutants was quantified by means of the β-galactosidase reporter activity in the yeast 2-hybrid system (report: "Matchmaker". Clontech) (Tab. 2 and FIG. 6).

Assay [2] addresses T2, human β-catenin (armadillo repeat 3 up to the C-terminal end, Leu218-Leu781) fused to the activation domain … (human, UniProt P04386 768-881; P35222 218-781).
T2 construct: Order of the fusion follows the vector; also called wild type β-catenin
T2 sequence (looked up): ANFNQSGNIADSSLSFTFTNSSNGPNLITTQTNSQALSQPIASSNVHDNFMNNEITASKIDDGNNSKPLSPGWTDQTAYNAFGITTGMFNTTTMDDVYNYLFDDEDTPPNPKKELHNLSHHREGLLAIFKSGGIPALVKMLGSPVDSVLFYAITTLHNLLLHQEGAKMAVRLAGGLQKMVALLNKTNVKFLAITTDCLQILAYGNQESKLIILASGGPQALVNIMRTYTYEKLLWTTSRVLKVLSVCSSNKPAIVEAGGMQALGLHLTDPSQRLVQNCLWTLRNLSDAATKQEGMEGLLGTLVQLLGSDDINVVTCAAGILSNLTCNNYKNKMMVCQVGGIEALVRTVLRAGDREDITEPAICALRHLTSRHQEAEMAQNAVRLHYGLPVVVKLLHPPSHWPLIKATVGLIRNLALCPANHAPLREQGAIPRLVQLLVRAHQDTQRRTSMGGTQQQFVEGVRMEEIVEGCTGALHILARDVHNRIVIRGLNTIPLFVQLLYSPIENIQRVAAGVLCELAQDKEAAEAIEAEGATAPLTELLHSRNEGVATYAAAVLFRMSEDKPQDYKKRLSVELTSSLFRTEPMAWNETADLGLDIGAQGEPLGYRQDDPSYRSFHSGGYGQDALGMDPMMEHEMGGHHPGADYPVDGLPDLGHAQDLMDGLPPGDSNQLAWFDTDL
The assay is described as follows: yeast 2-hybrid; wild type is the 100% reference of Table 2. The procedure: as §1

For assay [3], the target named is T3, human β-catenin (Leu218-Leu781) mutant Arg 342 to alanine, Gal-4 activation domain fusion (human, UniProt P35222 218-781).
T3 sequence: T1 sequence with R125A, A253H
Put plainly: yeast 2-hybrid; - means 60-100% of the wild type interaction. The procedure: as §1

Numbering of substitutions follows the chain as printed.

B1: LEF-1 amino acids 1-99 fused to Lex-A (vector BTM 116) (other, UniProt P0A7C2 1-202, looked up)
chain: MKALTARQQEVFDLIRDHISQTGMPPTRAEIAQRLGFRSPNAAEEHLKALARKGVIEIVSGASRGIRLLQEEEEGLPLVGRVAAGEPLLAQQHIEGHYQVDPSLFKPNADFLLRVSGMSMKDIGIMDGDLLAVHKTQDVRNGQVVVARIDDEVTVKRLKKQGNKVELLPENSEFKPIVVDLRQQSFTIEGLAVGVIRNGDWLMPQLSGGGGGGDPELCATDEMIPFKDEGDPQKEKIFAEISHPEEEGDLADIKSSLVNESEIIPASNGHEVVRQAPSSQEPYHDKAREHPDEGKHPDGGL
notes: Order of the fusion follows the vector; also called LEF-1/TCF-4
For B1, the binding result is “no binding” in assay [1], “binds” in assay [2] and “binds” in assay [3].

For the origin of these results see patent US7067474B1, “Agents for treating human illnesses based on β-catenin, and the production and use thereof” (Max-Delbruck-Centrum fur Molekulare Medizin, priority 1998, dated 2006).
